Reference: PMC4883682

Molecular target: C-terminally labeled STIM1(del302-448) (STIM1(del302-448)-AcGFP / STIM1(del302-448)-mApple) (human) (UniProt Q13586)
Test: cross-linking; chemical crosslinking with dithiobis(succinymidyl propionate); constructs separately expressed; unstimulated state (Supplemental Figure S2)

stoichiometry N: 2
Substance: C-terminally labeled STIM1(del302-448) (STIM1(del302-448)-AcGFP / STIM1(del302-448)-mApple) (from UniProt Q13586 23-685) (natural protein)
